# Biological target: SERCA (UniProt P04191)
# Test: time-resolved FRET in reconstituted lipid vesicles
# Details: reference: unphosphorylated labeled PLB; sites S16
substance,measurement,value
"phospholamban (PLB) (from UniProt P61015) PKA-phosphorylated, HPLC-purified labeled PLB (pPLB)",other: mole fraction of PLB bound to SERCA (xDA),weaker; reference 0.99 ± 0.01

# From publication PMC4054823
